The text below walks through data of patent US20210147486A1 (VIB VZW, published 2021).

Experiment [1] addresses T1, E. coli CsgG (wild type) fused C-terminally to a Strep-II tag (Escherichia coli, UniProt P0AEA2 16-277, N-terminal Cys of mature CsgG lipidated (N-terminal lipidation of CsgG)).
T1 construct: Nonameric pore; dimers of nonamers (18-mer) also seen; also called CsgG-Strep; CsgG pore; not shown: C-terminal Strep-II tag
T1 sequence: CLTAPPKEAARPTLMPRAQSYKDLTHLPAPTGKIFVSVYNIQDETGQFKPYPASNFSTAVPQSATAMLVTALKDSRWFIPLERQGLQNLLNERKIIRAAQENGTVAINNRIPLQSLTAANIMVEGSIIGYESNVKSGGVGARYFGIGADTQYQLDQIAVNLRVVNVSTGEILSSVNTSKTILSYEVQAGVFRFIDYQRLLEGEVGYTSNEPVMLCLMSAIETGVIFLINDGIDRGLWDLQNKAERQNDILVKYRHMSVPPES
As to the kind of experiment: co-expression in E. coli; His then Strep tandem affinity purification; SDS-PAGE.

The target of experiment [2] is T2, CsgG Y51A/N55V/F56Q/N91R/K94Q/R97W-del(V105-I107) pore containing the C terminal strep tag (Escherichia coli, UniProt P0AEA2 16-277).
T2 construct: also called Y51A/F56Q/N55V/N91R/K94Q/R97W-del(V105-I107); not shown: C-terminal Strep tag
T2 chain: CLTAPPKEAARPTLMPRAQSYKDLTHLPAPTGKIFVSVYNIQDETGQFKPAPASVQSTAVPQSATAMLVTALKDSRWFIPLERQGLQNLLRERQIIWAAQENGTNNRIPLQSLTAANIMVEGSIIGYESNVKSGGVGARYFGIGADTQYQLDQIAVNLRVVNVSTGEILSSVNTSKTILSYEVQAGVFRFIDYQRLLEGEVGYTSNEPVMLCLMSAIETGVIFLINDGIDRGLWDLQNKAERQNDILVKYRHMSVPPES
As to the kind of experiment: reconstitution of purified pore with synthetic peptide; electrophysiology.

Experiment [3] addresses T1, E. coli CsgG (wild type) fused …. The experiment can be described thus: in vitro reconstitution 2:1 peptide:CsgG, StrepTactin pull down, native PAGE fluorescence.
The target of experiment [4] is T3, CsgG Y51A/F56Q/K94Q/R97W/R192D-del(V105-I107), Strep-tagged (Escherichia coli, UniProt P0AEA2 16-277).
T3 construct: also called CsgG mutant with altered constriction; not shown: C-terminal Strep tag
T3 chain: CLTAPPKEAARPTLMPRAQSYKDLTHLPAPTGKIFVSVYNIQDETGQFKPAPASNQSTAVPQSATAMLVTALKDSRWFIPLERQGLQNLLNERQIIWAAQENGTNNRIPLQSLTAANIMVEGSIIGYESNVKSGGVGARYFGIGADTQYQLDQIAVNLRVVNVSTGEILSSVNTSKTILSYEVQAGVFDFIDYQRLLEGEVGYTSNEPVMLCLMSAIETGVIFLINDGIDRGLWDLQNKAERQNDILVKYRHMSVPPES
The experiment is described as above.

For experiment [5], the target named is T4, CsgG Y51A/F56I/N91R/K94Q/R97W-del(V105-I107) pore containing the C terminal strep tag (Escherichia coli, UniProt P0AEA2 16-277).
T4 construct: F561 read as F56I; also called Y51A/F561/N91R/K94Q/R97W-del(V105-I107) (so in the source); not shown: C-terminal Strep tag
T4 chain: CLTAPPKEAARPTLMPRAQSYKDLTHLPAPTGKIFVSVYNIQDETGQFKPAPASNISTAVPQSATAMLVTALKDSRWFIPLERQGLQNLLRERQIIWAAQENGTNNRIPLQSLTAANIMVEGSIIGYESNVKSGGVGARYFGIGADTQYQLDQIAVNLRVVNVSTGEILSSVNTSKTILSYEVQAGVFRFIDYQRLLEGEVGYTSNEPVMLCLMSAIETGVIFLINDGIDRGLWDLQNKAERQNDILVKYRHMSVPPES
As to the kind of experiment: panel E; complex made by incubating pore and peptide; DNA translocation current recording.

Experiment [6] deals with T5, CsgG Y51A/F56A/N91R/K94Q/R97W-del(V105-I107) pore containing the C terminal strep tag (Escherichia coli, UniProt P0AEA2 16-277).
T5 construct: not shown: C-terminal Strep tag
T5 chain: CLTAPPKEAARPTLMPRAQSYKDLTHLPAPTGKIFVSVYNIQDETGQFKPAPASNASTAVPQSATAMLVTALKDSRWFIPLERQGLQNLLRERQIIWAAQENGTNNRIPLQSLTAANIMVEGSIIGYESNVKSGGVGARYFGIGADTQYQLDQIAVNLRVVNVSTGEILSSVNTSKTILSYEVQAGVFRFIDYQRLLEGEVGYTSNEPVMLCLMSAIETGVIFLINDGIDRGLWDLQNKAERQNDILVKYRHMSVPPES
The experiment can be described thus: panel D; complex made by incubating pore and peptide; DNA translocation current recording.

In experiment [7] the target is T2, CsgG …. As to the kind of experiment: complex made by incubating pore and peptide; DNA translocation current recording.
Experiment [8] deals with T6, CsgG Y51S/N55V/F56Q/N91R/K94Q/R97W-del(V105-I107) pore containing the C terminal strep tag (Escherichia coli, UniProt P0AEA2 16-277).
T6 construct: not shown: C-terminal Strep tag
T6 chain: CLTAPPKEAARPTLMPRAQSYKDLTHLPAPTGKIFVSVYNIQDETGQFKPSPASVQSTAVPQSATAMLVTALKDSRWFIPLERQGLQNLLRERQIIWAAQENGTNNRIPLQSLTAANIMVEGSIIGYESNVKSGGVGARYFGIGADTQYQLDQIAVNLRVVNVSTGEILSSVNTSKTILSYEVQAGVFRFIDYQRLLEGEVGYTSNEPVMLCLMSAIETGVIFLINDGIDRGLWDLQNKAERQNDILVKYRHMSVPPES
The experiment can be described thus: panel F; complex made by incubating pore and peptide; DNA translocation current recording.

The target of experiment [9] is T7, CsgG Y51A/N55I/F56Q/N91R/K94Q/R97W-del(V105-I107) pore containing the C terminal strep tag (Escherichia coli, UniProt P0AEA2 16-277).
T7 construct: N551 read as N55I; also called Y51A/N551/F56Q/N91R/K94Q/R97W-del(V105-I107) (so in the source); not shown: C-terminal Strep tag
T7 chain: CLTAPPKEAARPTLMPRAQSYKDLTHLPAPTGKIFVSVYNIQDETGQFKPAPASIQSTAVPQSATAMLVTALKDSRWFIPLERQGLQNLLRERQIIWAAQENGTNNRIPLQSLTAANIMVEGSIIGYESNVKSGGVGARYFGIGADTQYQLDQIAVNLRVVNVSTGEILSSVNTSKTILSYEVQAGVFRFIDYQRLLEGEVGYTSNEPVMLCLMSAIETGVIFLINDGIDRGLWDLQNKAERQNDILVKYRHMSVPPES
As to the kind of experiment: panel C; complex made by incubating pore and peptide; DNA translocation current recording.

Experiment [10] addresses T8, CsgG Y51T/N55V/F56Q/N91R/K94Q/R97W-del(V105-I107) pore containing the C terminal strep tag (Escherichia coli, UniProt P0AEA2 16-277).
T8 construct: not shown: C-terminal Strep tag
T8 chain: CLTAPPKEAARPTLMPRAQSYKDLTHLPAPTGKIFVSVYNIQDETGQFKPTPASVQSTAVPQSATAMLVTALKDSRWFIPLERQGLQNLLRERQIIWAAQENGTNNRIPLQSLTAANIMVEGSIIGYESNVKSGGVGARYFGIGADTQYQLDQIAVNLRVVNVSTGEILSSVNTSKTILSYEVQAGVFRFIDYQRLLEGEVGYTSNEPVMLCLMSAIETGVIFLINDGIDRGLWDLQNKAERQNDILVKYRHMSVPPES
As to the kind of experiment: panel B; complex made by incubating pore and peptide; DNA translocation current recording.

Experiment [11] deals with T9, CsgG Y51A/F56Q/N91R/K94Q/R97W-del(V105-I107) pore containing the C terminal strep tag (Escherichia coli, UniProt P0AEA2 16-277).
T9 construct: not shown: C-terminal Strep tag
T9 chain: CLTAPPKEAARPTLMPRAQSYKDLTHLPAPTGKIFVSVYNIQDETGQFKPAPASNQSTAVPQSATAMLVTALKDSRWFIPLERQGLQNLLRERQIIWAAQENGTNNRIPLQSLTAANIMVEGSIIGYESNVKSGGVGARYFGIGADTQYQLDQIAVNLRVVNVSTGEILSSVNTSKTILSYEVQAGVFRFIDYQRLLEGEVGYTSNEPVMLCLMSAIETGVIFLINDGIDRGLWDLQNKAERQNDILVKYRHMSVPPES
As to the kind of experiment: co-expression, purification, TEV cleavage; DNA translocation current recording.

Experiment [12] has as its target T1, E. coli CsgG (wild type) fused …. As to the kind of experiment: co-expression, Strep affinity purification, anti-His dot blot.
Experiment [13] concerns the target T2, CsgG …. The experiment can be described thus: reconstitution of purified pore with synthetic peptide; SDS-PAGE after heating.

Where no end group is shown, it is not given here. The star is where a group is joined. NH(CH2)5NH2 = NCCCCCN*

B1: E. coli CsgF (mature) with a C-terminal 6x histidine tag (other)
chain: GTMTFQFRNPNFGGNPNNGAFLLNSAQAQNSYKDPSYNDDFGIETPSALDNFTQAIQSQILGGLLSNINTGKPGRMVTNDYIVDIANRDGQLQLNVTDRKTGQTSTIQVSGLQNNSTDFHHHHHH
notes: a start Met is not mentioned; 9:9 stoichiometry with CsgG in the cryoEM structure; also called CsgF-His
In the case of B1, the binding result in experiment [1] was “binds”. GTMTFQFRNPNFGGNPNNGAFLLNSAQAQN [CsgF-(1-30) synthetic peptide]: the binding result in experiment [2] is reported as “binds”.

B2: Alexa 594-labelled CsgF peptide corresponding to the first 34 residues of mature CsgF (peptide)
peptide: GTMTFQFRNPNFGGNPNNGAFLLNSAQAQNSYKD-{NH(CH2)5NH2-Alexa594}
notes: Synthetic peptide; also called CsgF N-terminal peptide; FCP
Regarding B2, the binding result in experiment [3] and in experiment [4] was “binds” throughout. Consider GTMTFQFRNPNFGGNPSNGAFLLNSAQAQNSYKDP (also called CsgF-N175-(1-35)) [CsgF-N17S-(1-35) peptide], for which the binding result in [5], in experiment [6], in experiment [7], in experiment [8], in experiment [9] and in [10] was “binds” each time. Regarding GTMTFQFRNPNFGGNPVNGAFLLNSAQAQNSYKDP [CsgF-N17V-(1-35) peptide], in experiment [7], the binding result is “binds”.

B3: CsgF truncated at position 35 by TEV cleavage, with ENLYFQ left at the C-terminus (peptide)
peptide: GTMTFQFRNPNFGGNPNNGAFLLNSAQAQNSYKDPENLYFQ
notes: The text calls it 42 amino acids long; 35 + 6 gives 41; also called CsgF truncated protein
Turning to B3, the binding result in experiment [11] is listed as “binds”.

In the case of GTMTFQFRNPNFGGNPSNGAFLLNSAQAQNSYKDPENLYFQ [CsgF N17S truncated at position 35 by TEV cleavage, with ENLYFQ left at the C-terminus], the binding result in experiment [11] is listed as “binds”. With GTMTFQFRNPNFGGNPNNGAFLLNSAQAQ [CsgF-(1-29) synthetic peptide], the binding result in experiment [2] was “binds”.

B4: CsgF 20:64 fragment with C-terminal 6xHis (from pNA100) (peptide)
peptide: GTMTFQFRNPNFGGNPNNGAFLLNSAQAQNSYKDPSYNDDFGIETHHHHHH
notes: also called CsgF 1-64; CsgF fragment 1-64
Turning to B4, the binding result in experiment [12] is on record as “binds”. Regarding GTMTFQFRNPNFGGNPNNGAFLLNSAQAQNSYKDPSYNDDFGIET [CsgF-(1-45) synthetic peptide], the binding result in experiment [13] is reported as “binds”.
